According to paper PMC12355471, “Clear Native Gel Electrophoresis for the Purification of Fluorescently Labeled Membrane Proteins in Native Nanodiscs” (Analytical Chemistry, 2025):
Where two headings read alike, the source gives them in different places.

Experiments:
[1] = molecular target: voltage-gated potassium ion channel KvAP (Aeropyrum pernix) (UniProt Q9YDF8); experiment: native gel or EMSA; detergent-free clear native PAGE (CNE) of Glyco-DIBMA nanodiscs, 4 °C, fluorescence imaging
[2] = molecular target: voltage-gated potassium ion channel KvAP (Aeropyrum pernix) (UniProt Q9YDF8); experiment: SEC; Glyco-DIBMA native nanodiscs with labelled protein after Ni2+ affinity chromatography; absorbance at 280, 650 and 665 nm; oligomer peak at 10-11 mL
[3] = molecular target: voltage-gated potassium ion channel KvAP (Aeropyrum pernix) (UniProt Q9YDF8); experiment: native gel or EMSA; high-resolution clear native PAGE (hrCNE) with 0.01% DDM and 0.05% sodium deoxycholate, Glyco-DIBMA nanodiscs, 4 °C, fluorescence imaging
[4] = molecular target: voltage-gated potassium ion channel KvAP (Aeropyrum pernix) (UniProt Q9YDF8); experiment: fluorescence correlation spectroscopy (molecular brightness per nanodisc); Alexa Fluor 647-labelled protein in Glyco-DIBMA native nanodiscs; oligomer fraction after SEC and bands resolubilised from native gels; brightness compared with the free dye (ruler, 7.5 kHz); nM concentrations; standard buffer 150 mM NaCl or KCl, 50 mM Tris-HCl, pH 8
[5] = molecular target: voltage-gated potassium ion channel KvAP (Aeropyrum pernix) (UniProt Q9YDF8); experiment: as above; remark: listed apart in the source
[6] = molecular target: voltage-gated sodium ion channel NavMs; experiment: SEC; Glyco-DIBMA native nanodiscs with labelled protein after Ni2+ affinity chromatography; absorbance at 280, 650 and 665 nm; oligomer peak at 10-11 mL
[7] = molecular target: voltage-gated sodium ion channel NavMs; experiment: native gel or EMSA; high-resolution clear native PAGE (hrCNE) with 0.01% DDM and 0.05% sodium deoxycholate, Glyco-DIBMA nanodiscs, 4 °C, fluorescence imaging
[8] = molecular target: voltage-gated sodium ion channel NavMs; experiment: fluorescence correlation spectroscopy (molecular brightness per nanodisc); Alexa Fluor 647-labelled protein in Glyco-DIBMA native nanodiscs; oligomer fraction after SEC and bands resolubilised from native gels; brightness compared with the free dye (ruler, 7.5 kHz); nM concentrations; standard buffer 150 mM NaCl or KCl, 50 mM Tris-HCl, pH 8
[9] = molecular target: the molecule itself; experiment: SEC; Glyco-DIBMA native nanodiscs with labelled protein after Ni2+ affinity chromatography; absorbance at 280, 650 and 665 nm; oligomer peak at 10-11 mL
[10] = molecular target: the molecule itself; experiment: fluorescence correlation spectroscopy (molecular brightness per nanodisc); Alexa Fluor 647-labelled protein in Glyco-DIBMA native nanodiscs; oligomer fraction after SEC and bands resolubilised from native gels; brightness compared with the free dye (ruler, 7.5 kHz); nM concentrations; standard buffer 150 mM NaCl or KCl, 50 mM Tris-HCl, pH 8

voltage-gated potassium ion channel KvAP (from UniProt Q9YDF8 1-295) (natural protein)
stoichiometry N [1]: 4 | stoichiometry N [2]: 4 | stoichiometry N [3]: 4 | ratio of molecular brightness to the free dye (taken as the oligomeric state) [4]: 5.5 fold | ratio of molecular brightness to the free dye (taken as the oligomeric state) [5]: 4 fold

voltage-gated sodium ion channel NavMs (natural protein)
stoichiometry N [6]: 4 | stoichiometry N [7]: 4 | ratio of molecular brightness to the free dye (taken as the oligomeric state) [8]: 3 fold

B1: glycerol uptake facilitator protein (GlpF) (natural protein, UniProt P0AER0 1-281, looked up)
chain: MSQTSTLKGQCIAEFLGTGLLIFFGVGCVAALKVAGASFGQWEISVIWGLGVAMAIYLTAGVSGAHLNPAVTIALWLFACFDKRKVIPFIVSQVAGAFCAAALVYGLYYNLFFDFEQTHHIVRGSVESVDLAGTFSTYPNPHINFVQAFAVEMVITAILMGLILALTDDGNGVPRGPLAPLLIGLLIAVIGASMGPLTGFAMNPARDFGPKVFAWLAGWGNVAFTGGRDIPYFLVPLFGPIVGAIVGAFAYRKLIGRHLPCDICVVEEKETTTPSEQKASL
modifications: Alexa Fluor 647 maleimide on cysteine (six cysteine positions, not all can be labeled)
notes: glycerol uptake facilitator protein GlpF, a bacterial aquaporin; Studied inside Glyco-DIBMA native nanodiscs; A monomeric fraction was also found; also called bacterial aquaporin; aqua(glycero)porin GlpF
stoichiometry N [9]: 4

B2: urea channel HpUreI L134C (natural protein)
chain: MLGLVLLYVGIVLISNGICGLTKVDPKSTAVMNFFVGGLSIICNIVVITYSALHPTAPVEGAEDIAQVSHHLTSFYGPATGLLFGFTYLYAAINHTFGLDWRPYSWYSLFVAINTIPAAILSHYSDMLDDHKVCGITEGDWWAIIWLAWGVLWLTAFIENILKIPLGKFTPWLAIIEGILTAWIPAWLLFIQHWV
modifications: Alexa Fluor 647 maleimide on the cysteine of L134C
notes: urea channel UreI (HpUreI); Studied inside Glyco-DIBMA native nanodiscs; also called bacterial hexameric urea channel
stoichiometry N [9]: 6 | ratio of molecular brightness to the free dye (taken as the oligomeric state) [10]: 6 fold
